Common to all, as to assay: cell-based or functional assay
Assay [1] has as its target sortase-ligated phosphopeptide β2AR reconstituted in HDL particles (HDL-β2ARpp) (human) (UniProt P07550).
Assay [2] has as its target wild-type (WT) β2AR reconstituted in high-density lipoprotein particles (HDL-β2AR), non-phosphorylated (human) (UniProt P07550).
In assay [3] the target is phosphopeptide-ligated β2AR with a deletion of the third intracellular loop (β2ARppΔ238-267), in HDL particles (human) (UniProt P07550).
Assay [4] addresses β2AR ligated to a non-phosphorylated version of the V2R peptide, in HDL particles (β2ARnp) (human) (UniProt P07550).

This note sets out measurements from patent publication US20240101642A1.

For the substance “finger loop deletion mutant of β-arrestin1 (βarr1 Δ62-77) in βarr1-MC-393 (from UniProt P29066 1-61; P29066 78-393)”, the log IC50 of isoproterenol (ISO), competition radioligand binding, in the presence of βarr1 Δ62-77 (no transducer: -6.30+/-0.05) in assay [1] was -6.48 log.
With “heterotrimeric Gs protein (short Gαs splice variant, Gβ1-His6, Gγ2) (from UniProt P62873 2-340; P59768 2-68)”, in assay [2], the fold increase of isoproterenol affinity by the transducer turned out to be 1000 fold and the log IC50 of isoproterenol (ISO), [125I]-CYP competition binding, in the presence of Gs (no transducer: -6.82+/-0.03) was -8.88 log. For the same substance, in assay [3], the log IC50 of isoproterenol (ISO), competition radioligand binding, in the presence of Gs (no transducer: -6.91+/-0.04) is -8.85 log. In addition, the log IC50 of isoproterenol (ISO), [125I]-CYP competition binding, in the presence of Gs (no transducer: -6.42+/-0.09) in assay [4] was -9.02 log. Moreover, in assay [1], the fold increase of isoproterenol affinity by the transducer worked out at 800 fold and the log IC50 of isoproterenol (ISO), [125I]-CYP competition binding, in the presence of Gs (no transducer: -6.24+/-0.04) is -9.15 log.
Consider “β-arrestin1, minimal cysteine and truncated variant of rat βarr1 (βarr1-MC-393) (from UniProt P29066 1-393)”, for which, in assay [1], the fold increase of isoproterenol affinity by the transducer is 9 fold; the log IC50 of isoproterenol (ISO), [125I]-CYP competition binding, in the presence of βarr1 (no transducer: -6.24+/-0.04) was -7.14 log; the log IC50 of isoproterenol (ISO), competition radioligand binding, in the presence of βarr1 (no transducer: -6.30+/-0.05) was -7.25 log.
